B1: 1ZHC (parent)
chain: HEFRDEISVLKANNPHFDKIFEKHNQLDDDIKTAEQQNASDAEVSHMKKQKLKLKDEIHSMIIEYREK

Variants of: B1
Assay: folding stability dG (cDNA display proteolysis); higher = more stable
Settings: PBS, room temperature

Folding stability dG [kcal/mol] of substitutions, site by site:
Q37: V 0.447, D 0.411, A 1.07, R 1.51, F 0.569, W 0.426, L 0.867, G 0.943, C 0.94, T 0.882, I 0.631, K 0.764, E 0.422, H 1.05, N 1.38, M 0.926, Y 0.718, S 1
E43: D 1.26, W 1.26, K 1.24, M 1.12, V 1.22, T 0.763, C 1.01, S 0.44, I 1.27, R 1.08, N 0.299, Y 1.2, F 1.07, Q 0.669, H 0.621, A 0.759, L 1.14, G -0.301
A42: T 0.44, W 0.189, M 0.539, D 0.989, Y 0.635, E 1.26, R -0.079, F 0.065, Q 0.718, P 0.446, G 0.074, I 0.572, V 0.662, S 0.359, N 0.432, H 0.433, C 0.68, L 0.464, K 0.633
N38: K 0.548, D 0.358, S 0.358, E -0.059, I -0.331, C 0.923, Q -0.49, V -0.172, L 0.276, A 0.467, H 0.624, M 0.449, G 1.55, F 0.925, T 0.312, P -0.007, R 0.634, W -0.188, Y 0.303
K48: A 0.086, M 0.757, R 0.398, Q 0.238, W 0.118, N -0.844, S -0.947, Y 0.617, E -0.818, T 0.032, L 0.4, V 0.419, I 0.568, F 0.266, C 0.421
L54: Y 0.165, C -0.495, W -0.913, M -0.648, I -0.626
S45: H 0.845, F 0.625, C 1.15, W 0.834, M 1.01, K 0.976, G 0.349, N 1.05, V 0.431, I 0.788, L 0.524, E 1.07, D 0.937, R 0.873, Y 0.766, A 1.09, T 1.34
S40: C 0.351, D 0.774, M -0.003, V -0.512, E 0.469, W -0.874, Q 0.039, I -0.234, K 0.104, A 0.255, L 0.393, F 0.13, R 0.251, P 0.855, Y -0.236, G 0.619, N 1.12, H 0.256, T -0.074
Q36: Y 0.632, V 0.511, T 0.782, W 0.281
D56: N 1.07, A 1.27, Q 1.51, L 1.61, T 0.838, I 1.25, V 1.02, C 1.36, E 1.29, Y 1.5, F 1.18, H 1.07, K 1.22, G 0.971, W 1.39, M 1.57, S 0.621, R 1.21
M47: L 1.59, W 0.576, C -0.078, V -0.869, Y -0.412, A -0.981, I -0.393
D41: P 1.28, Q 0.972, K 0.873, V 0.775, T 0.736, M 0.722, E 1.33, G 0.41, N 0.532, L 0.874, H 0.871, I 0.951, S 1.03, A 1.23, W 0.916, R 0.76, C 0.771, Y 0.879, F 0.919
K55: W 2.94, V 0.758, D 0.359, L 1.45, R 1.51, Q 1.28, I 1.09, E 0.926, N 0.726, F 1.65, M 1.72, S 1.14, T 0.273, A 1.67, C 2.15, H 1.27, G 0.766, Y 1.47
Q50: M 1, L 1.55, G -0.255, Y 0.509, W 0.792, R 0.642, S -0.299, N -0.038, E 0.976, T 0.433, H 0.479, A 0.475, F 0.915, I 0.757, V 0.067, C 1.12, K 0.22
K53: E 0.543, R 0.995, Q 0.53, L 1.16, Y 0.301, S 0.351, F 0.261, M 1.05, V 0.811, P -0.251, T 0.66, D -0.039, H 0.266, W 0.603, C 0.879, I 0.711, A 1.12, N -0.015
V44: C -0.468, G 0.622, T -0.308, Y -0.518, K -0.664, I 1.57, R -0.295, S -0.907, M 0.497, L 1.37
H46: W 1.29, R 1.97, F 1.02, E 1.47, N 1.14, D 0.734, Y 1.19, A 1.5, G 0.785, S 1.28, C 1.09, I 1.23, Q 1.17, T 0.889, K 1.46, L 1.36, V 0.657, M 1.1, P -0.278
K49: Y 1.2, H 0.527, C 1.11, V 0.867, N 0.588, I 1.18, R 1.03, F 0.439, M 1.19, Q 1.27, G 0.492, S 0.881, W 0.556, T 0.971, D 0.75, L 0.949, E 0.919, A 1.29
L52: Y 0.359, M 1.28, G -0.063, C 0.71, E 1.17, D 1.02, H 0.494, A 1.08, T 0.288, F 0.588, Q 1.28, K 0.948, N 0.952, W 0.394, S 0.812, V 0.329, I 0.913
E57: C 0.959, A 0.703, F -0.51, D -0.8
A39: P 0.131, F 1.07, N 0.078, R 1.33, W 1.3, V 0.986, L 1.36, I 0.873, H 0.973, Y 0.83, K 1.1, Q 0.259, C 0.897, T 0.09, S 0.359, G 0.787, D 0.034, E 0.246, M 0.936
K51: C 0.855, W 1.57, H 0.299, E -0.779, Y 1.5, R 1.29, M 1.52, I 1.3, Q 0.766, S 0.403, N -0.683, F 1.65, L 2.36, V 0.721, A 0.915, G -0.631

Source: the MegaScale stability set (Tsuboyama et al. 2023)
